In FireProtDB (doi:10.1002/pro.5560030904):
Values joined by “and” are separate entries in the source; they are usually repeats but may differ in a detail not shown here. Equal values may be shown once.

B1: Fructose-bisphosphate aldolase A, P00883 (parent)
chain: MPHSHPALTPEQKKELSDIAHRIVAPGKGILAADESTGSIAKRLQSIGTENTEENRRFYRQLLLTADDRVNPCIGGVILFHETLYQKADDGRPFPQVIKSKGGVVGIKVDKGVVPLAGTNGETTTQGLDGLSERCAQYKKDGADFAKWRCVLKIGEHTPSALAIMENANVLARYASICQQNGIVPIVEPEILPDGDHDLKRCQYVTEKVLAAVYKALSDHHIYLEGTLLKPNMVTPGHACTQKYSHEEIAMATVTALRRTVPPAVTGVTFLSGGQSEEEASINLNAINKCPLLKPWALTFSYGRALQASALKAWGGKKENLKAAQEEYVKRALANSLACQGKYTPSGQAGAAASESLFISNHAY

Variants of: B1
Conditions: Oryctolagus cuniculus; pH 7.4; Thermal; DSC; sodium phosphate 10 mM; transition: 3; reversible: yes; structure 1ADO; whole UniProt chain shown

Variant | Tm | change of melting temperature, mutant - wild type (higher = more stable) | unfolding enthalpy (calorimetric)
D129A | 46.8 °C | -11.9 °C | 71 kcal/mol
D129Q | 45.9 °C and 47.1 °C | -9.8 °C and -11.6 °C | 67 kcal/mol and 77 kcal/mol
D129N | 45.6 °C and 47 °C | -10.1 °C and -11.7 °C | 80 kcal/mol and 83 kcal/mol
D129G | 44 °C and 46 °C | -11.7 °C and -12.7 °C | 67 kcal/mol and 73 kcal/mol
D129V | 43.9 °C and 46.5 °C | -11.8 °C and -12.2 °C | 91 kcal/mol and 78 kcal/mol
